Assay [1] deals with Caldanaerovirga acetigignens double ferritin-like protein (Caldanaerovirga acetigignens). Briefly: SEC-MALS. (In general: SEC sorts molecules by how far they enter the pores of the column.)
Assay [2] concerns the target Thermocrinis minervae double ferritin-like protein (Thermocrinis minervae). Briefly: SEC-SAXS.
For assay [3] the target is unchanged. Briefly: SEC-MALS.

The source of these data is article doi:10.1101/2025.09.13.676036.

As usually defined, the stoichiometry N is a count of units in the complex or per binding partner.

As to “Caldanaerovirga acetigignens double ferritin-like protein (enzyme)”, in assay [1], the stoichiometry N turned out to be 2.

Take “Thermocrinis minervae double ferritin-like protein (enzyme)”: the stoichiometry N in assay [2] and in assay [3] was 2 each time.
